Data on one sequence can be found in US20190177730.

The target of series [1] is T1, PCSK9 D374Y D374Y (Homo sapiens) (UniProt Q8NBP7+Q8NBP7). Description: inhibition. The conditions noted are these: all C = PP-dC (5-position), all U = Nap-dU (5-position); blocks PCSK9 D374Y binding to LDL-R, room temperature; text names 11733-198.
Series [2] has as its target T1, PCSK9 D374Y D374Y (Homo sapiens). Description: filter. To be noted: all C = PP-dC (5-position), all U = Nap-dU (5-position); aptamer identity per figure legend; text names 11733-198.

T1 sequence (Q8NBP7 whole entry, stated change not applied, chain 1 of 2): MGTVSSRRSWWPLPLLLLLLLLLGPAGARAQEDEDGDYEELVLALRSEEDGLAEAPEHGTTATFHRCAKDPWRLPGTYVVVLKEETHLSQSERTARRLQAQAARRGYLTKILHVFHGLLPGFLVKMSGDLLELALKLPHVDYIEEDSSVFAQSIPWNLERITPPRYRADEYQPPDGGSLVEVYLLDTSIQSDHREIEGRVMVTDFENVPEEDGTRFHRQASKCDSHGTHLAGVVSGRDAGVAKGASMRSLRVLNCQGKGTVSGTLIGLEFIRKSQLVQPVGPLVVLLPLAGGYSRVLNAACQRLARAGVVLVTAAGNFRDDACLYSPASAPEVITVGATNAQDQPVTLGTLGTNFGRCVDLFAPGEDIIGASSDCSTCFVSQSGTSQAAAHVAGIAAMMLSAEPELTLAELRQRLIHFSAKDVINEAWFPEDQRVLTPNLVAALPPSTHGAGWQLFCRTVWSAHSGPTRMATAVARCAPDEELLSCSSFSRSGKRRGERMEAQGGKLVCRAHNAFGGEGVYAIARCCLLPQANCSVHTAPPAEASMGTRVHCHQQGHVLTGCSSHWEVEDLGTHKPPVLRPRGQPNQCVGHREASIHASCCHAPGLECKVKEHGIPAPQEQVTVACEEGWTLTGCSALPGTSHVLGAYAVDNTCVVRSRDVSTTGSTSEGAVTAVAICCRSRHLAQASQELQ
T1 sequence (Q8NBP7 whole entry, stated change not applied, chain 2 of 2): as the sequence (Q8NBP7 whole entry, stated change not applied, chain 1 of 2) above

In series [1], “AACGUACUUUAAGGCCUAUUGAGGAAACUC [11733-44 (SL1063)]” displayed a half-maximal effective concentration (EC50) of 3.6 nM. In series [2], this sequence displayed a Kd of 0.0052 nM.
